What is called pKd is −log10 of the Kd, conventionally taken in molar units.

Series [1] concerns T1, Ah-BarR WT (Acidianus hospitalis), ORF:d4ab5e4b.
T1 sequence: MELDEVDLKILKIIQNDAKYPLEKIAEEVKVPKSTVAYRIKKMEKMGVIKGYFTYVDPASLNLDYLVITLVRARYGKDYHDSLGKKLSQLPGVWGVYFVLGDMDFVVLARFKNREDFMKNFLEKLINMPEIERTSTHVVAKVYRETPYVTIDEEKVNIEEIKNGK
Nature of the series: EMSA. The conditions noted are these: 20 mM Tris-HCl pH 8.0, 50 mM NaCl, 0.4 mM EDTA, 0.1 mM DTT, 1 mM MgCl2, 12.5% glycerol, 25 ug/mL salmon sperm DNA, 25 min at 37 C (EMSA).

For series [2] the test system is unchanged. Nature of the series: in-gel Cu-OP footprinting. The conditions noted are these: 20 mM Tris-HCl pH 8.0, 50 mM NaCl, 0.4 mM EDTA, 0.1 mM DTT, 1 mM MgCl2, 12.5% glycerol, 25 ug/mL salmon sperm DNA, 25 min at 37 C (EMSA). In general terms: In EMSA bound probe runs differently from free probe, usually more slowly.
Series [3] concerns the target Ah‐BarR M103N (P ah‐barR promoter, mKate2 reporter) (Acidianus hospitalis, UniProt F4B5V3, M103N). Nature of the series: cell-based. The conditions noted are these: BS1 M103N; 5 mM glutamine, 20 mg/L naringenin (Figure A7). It counts as cell-based. As to the method: (§1) Reporter gene assays were performed as previously described (Bernauw et al., [2022]). pPRC6 and pITC variants (Table 1) were co‐transformed in E. coli MG1655 chemical competent cells using heat shock transformation. Transformant colonies of the Ah‐BarR biosensor strains were picked to inoculate wells of a transparent 96‐well plate (Greiner Bio‐One), each well filled with 200 µL of MOPS EZ Rich Defined medium (Teknova), prepared without the addition of the 5X EZ Supplement, after which the plate was incubated overnight in a ThermoMixer C (Eppendorf) at 30°C and 300 rpm. Next, a black 96‐well plate was filled with a naringenin solution prepared in ethanol (250 mg/L or 2.5 g/L), after which a Breathe‐Easy sealing membrane (Sigma‐Aldrich) was applied and the ethanol was evaporated in a ThermoMixer C (Eppendorf) at 75°C. […] Finally, the plate was sealed again using a Breathe‐Easy sealing membrane (Sigma‐Aldrich).
(§2) Plates were incubated at 30°C and 300 rpm for 40 h in a Synergy H1 microplate reader (BioTek) with measurements of OD600 and fluorescence (excitation wavelength: 588 nm, emission wavelength: 633 nm) being taken every 20 min. The gain was set to 140 for all measurements, except for the measurements with the amino acids (pools and separately), where the gain was set to 150. […] In addition, wells solely containing medium were measured as well to correct for the background signal.
(§3) Reporter expression was analyzed at t = 30 h, when all cultures had reached the stationary phase, by taking into account three subsequent time points (t–1, t, t+1). The corrected FL/OD600 value was calculated for each replicate (n = 4) as follows: FL/ODcor=FLt−1−FLmed,t−1/ODt−1−ODmed,t−1+FLt−FLmed,t/ODt−ODmed,t+FLt+1−FLmed,t+1/ODt+1−ODmed,t+1/3
(§4) Response curves were fitted to a Hill function of the shape P(M)=b+aM^n/θ^n+M^nforaβ−alanine−inducible responseb+aθ^n/θ^n+M^nforaβ−alanine−repressible response according to a previously published procedure (Landry et al., [2018]) with minor adaptations. […] Briefly, lmfit 1.1.0 was used to fit all replicates of a response curve to the appropriate Hill function using the Levenberg‐Marquardt algorithm (Moré, [1978]; Newville et al., [2016]). […] The dynamic range was estimated as μ=a/b .

Series [4] concerns the target Ah‐BarR M103T (P ah‐barR promoter, mKate2 reporter) (Acidianus hospitalis, UniProt F4B5V3, M103T). Nature of the series: cell-based. It counts as cell-based. The conditions noted are these: BS1 M103T; 5 mM glutamine, 20 mg/L naringenin (Figure A7). The procedure:
as §1, §2, §3, §4

Series [5] relates to T2, Ah-BarR trunc (Acidianus hospitalis), ORF:d4ab5e4b.
T2 sequence: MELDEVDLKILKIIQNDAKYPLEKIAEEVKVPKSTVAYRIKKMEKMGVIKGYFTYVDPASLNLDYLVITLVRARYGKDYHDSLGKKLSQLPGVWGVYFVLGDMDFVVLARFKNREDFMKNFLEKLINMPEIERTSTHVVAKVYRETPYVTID
Put plainly: EMSA. The conditions noted are these: 20 mM Tris-HCl pH 8.0, 50 mM NaCl, 0.4 mM EDTA, 0.1 mM DTT, 1 mM MgCl2, 12.5% glycerol, 25 ug/mL salmon sperm DNA, 25 min at 37 C (EMSA).

The subject of series [6] is Ah-BarR WT (Acidianus hospitalis). Put plainly: EMSA. The conditions noted are these: no beta-alanine; octamer concentration; 20 mM Tris-HCl pH 8.0, 50 mM NaCl, 0.4 mM EDTA, 0.1 mM DTT, 1 mM MgCl2, 12.5% glycerol, 25 ug/mL salmon sperm DNA, 25 min at 37 C (EMSA).

pKd: −log10 of the molar value.

Chain of Ah‐BarR M103N (P ah‐barR promoter, mKate2 reporter) (F4B5V3 entry or part of it M103N): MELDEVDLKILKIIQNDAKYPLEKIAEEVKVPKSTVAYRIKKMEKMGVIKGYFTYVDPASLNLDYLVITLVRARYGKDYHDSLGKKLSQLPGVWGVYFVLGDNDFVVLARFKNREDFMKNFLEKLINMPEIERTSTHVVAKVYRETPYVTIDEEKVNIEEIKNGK
Chain of Ah‐BarR M103T (P ah‐barR promoter, mKate2 reporter) (F4B5V3 entry or part of it M103T): as the sequence (F4B5V3 entry or part of it M103N) above, with N103T counted along it

Regarding “CTTTAAGTCTACCTCGTCTAGCTCCATAATATATAATTAGAAGAGGTAATTTAAACCTTATACATTTTATCGACGAATAAGTTGAATATACAATTTAATAAAAAGGGATTATCTTGGAAATTATATTTAGACATTCCAAAGCAAGATTTAAACTATTGTACTTTTTATTTTAGCTGTCCTAAAATACTTAAATTCCGTCTAAACTACTAGTATCGCATGGATGAAGATGTCGTTAAATTGGTTAAAGAACATACTTTCGGAACTTGGAAAGTTC (double strand) [Promoter mutant 3 (mut3) 274 bp]”, the binding entry in series [1] is on record as “no binding”.
For the molecule “CCTTATACATTTTATCGACGAATAAGTTGAATATACAACTAAATAAAAAGGGATTATCTTGGAAATTATACAGAGACATTCCAAAGCAAGATTTAAACTATTGTACTTTTTACAATAGCTGTCCTAAAATACTTAAATTCCGTCTAAACTACTAGTATCGCATGGATG (double strand) [WT promoter short 168 bp]”, in series [2], the binding entry is “binds”.
On to `NC(=O)CC[C@H](N)C(=O)O` [glutamine], for which the “glutamine response of reporter expression” value in series [3] and in series [4] was “did not lead to the acquisition of a glutamine‐specific response” each time.
Consider “CTTTAAGTCTACCTCGTCTAGCTCCATAATATATAATTAGAAGAGGTAATTTAAACCTTATACATTTTATCGACGAATAAGTTGAATATACAACTAAATAAAAAGGGATTATCTTGGAAATTATACAGAGACATTCCAAAGCAAGATTTAAACTATTGTACTTTTTACAATAGCTGTCCTAAAATACTTAAATTCCGTCTAAACTACTAGTATCGCATGGATGAAGATGTCGTTAAATTGGTTAAAGAACATACTTTCGGAACTTGGAAAGTTC (double strand) [WT promoter 274 bp]”, for which, in series [1], the pKd is 7.92 and the binding entry is reported as “binds”. For the same molecule, in series [5], the binding result is listed as “binds”.
In turn, “CTTTAAGTCTACCTCGTCTAGCTCCATAATATATAATTAGAAGAGGTAATTTAAACCTTATACATTTTATCGACGAATAAGTTGAATATACAATTTAATAAAAAGGGATTATCTTGGAAATTATACAGAGACATTCCAAAGCAAGATTTAAACTATTGTACTTTTTACAATAGCTGTCCTAAAATACTTAAATTCCGTCTAAACTACTAGTATCGCATGGATGAAGATGTCGTTAAATTGGTTAAAGAACATACTTTCGGAACTTGGAAAGTTC (double strand) [Promoter mutant 1 (mut1) 274 bp]” gave a negative logarithm of the Kd (pKd) in series [1] of 7.51.
Regarding WT promoter 274 bp, the pKd in series [6] was 7.92.
Take “CTTTAAGTCTACCTCGTCTAGCTCCATAATATATAATTAGAAGAGGTAATTTAAACCTTATACATTTTATCGACGAATAAGTTGAATATACAATTTAATAAAAAGGGATTATCTTGGAAATTATATTTAGACATTCCAAAGCAAGATTTAAACTATTGTACTTTTTACAATAGCTGTCCTAAAATACTTAAATTCCGTCTAAACTACTAGTATCGCATGGATGAAGATGTCGTTAAATTGGTTAAAGAACATACTTTCGGAACTTGGAAAGTTC (double strand) [Promoter mutant 2 (mut2) 274 bp]”: the pKd in series [1] was 7.44.

(Values after article PMC10201364 (MicrobiologyOpen, 2023).)
